Experimental data: IntAct's records for PubMed 17891176

B1: DNA-binding protein inhibitor ID-1 (Homo sapiens), P41134 (parent)
chain: MKVASGSTATAAAGPSCALKAGKTASGAGEVVRCLSEQSVAISRCAGGAGARLPALLDEQQVNVLLYDMNGCYSRLKELVPTLPQNRKVSKVEILQHVIDYIRDLQLELNSESEVGTPGGRGLPVRAPLSTLNGEISALTAEAACVPADDRILCR

Variants of: B1
Settings: with psmd4_human PSMD4, P55036
Chain of psmd4_human PSMD4, P55036 (P55036 whole entry): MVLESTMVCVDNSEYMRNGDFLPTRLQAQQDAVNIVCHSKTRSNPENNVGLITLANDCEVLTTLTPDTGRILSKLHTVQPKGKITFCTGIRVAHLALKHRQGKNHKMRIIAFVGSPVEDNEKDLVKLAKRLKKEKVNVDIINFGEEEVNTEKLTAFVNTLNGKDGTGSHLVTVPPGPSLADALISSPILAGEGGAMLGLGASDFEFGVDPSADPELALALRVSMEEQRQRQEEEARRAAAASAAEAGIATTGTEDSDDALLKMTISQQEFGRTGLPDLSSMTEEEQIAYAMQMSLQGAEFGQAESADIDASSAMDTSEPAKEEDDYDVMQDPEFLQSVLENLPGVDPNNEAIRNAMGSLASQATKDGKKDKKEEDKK

| effect of a mutation on the interaction | Variant |
| --- | --- |
| decreasing interaction | V98G |
